Bridges are numbered along the chain shown (N, C = ends). Where no end group is shown, it is not given here.
T1: natriuretic peptide receptor -A (Homo sapiens)
T1 chain: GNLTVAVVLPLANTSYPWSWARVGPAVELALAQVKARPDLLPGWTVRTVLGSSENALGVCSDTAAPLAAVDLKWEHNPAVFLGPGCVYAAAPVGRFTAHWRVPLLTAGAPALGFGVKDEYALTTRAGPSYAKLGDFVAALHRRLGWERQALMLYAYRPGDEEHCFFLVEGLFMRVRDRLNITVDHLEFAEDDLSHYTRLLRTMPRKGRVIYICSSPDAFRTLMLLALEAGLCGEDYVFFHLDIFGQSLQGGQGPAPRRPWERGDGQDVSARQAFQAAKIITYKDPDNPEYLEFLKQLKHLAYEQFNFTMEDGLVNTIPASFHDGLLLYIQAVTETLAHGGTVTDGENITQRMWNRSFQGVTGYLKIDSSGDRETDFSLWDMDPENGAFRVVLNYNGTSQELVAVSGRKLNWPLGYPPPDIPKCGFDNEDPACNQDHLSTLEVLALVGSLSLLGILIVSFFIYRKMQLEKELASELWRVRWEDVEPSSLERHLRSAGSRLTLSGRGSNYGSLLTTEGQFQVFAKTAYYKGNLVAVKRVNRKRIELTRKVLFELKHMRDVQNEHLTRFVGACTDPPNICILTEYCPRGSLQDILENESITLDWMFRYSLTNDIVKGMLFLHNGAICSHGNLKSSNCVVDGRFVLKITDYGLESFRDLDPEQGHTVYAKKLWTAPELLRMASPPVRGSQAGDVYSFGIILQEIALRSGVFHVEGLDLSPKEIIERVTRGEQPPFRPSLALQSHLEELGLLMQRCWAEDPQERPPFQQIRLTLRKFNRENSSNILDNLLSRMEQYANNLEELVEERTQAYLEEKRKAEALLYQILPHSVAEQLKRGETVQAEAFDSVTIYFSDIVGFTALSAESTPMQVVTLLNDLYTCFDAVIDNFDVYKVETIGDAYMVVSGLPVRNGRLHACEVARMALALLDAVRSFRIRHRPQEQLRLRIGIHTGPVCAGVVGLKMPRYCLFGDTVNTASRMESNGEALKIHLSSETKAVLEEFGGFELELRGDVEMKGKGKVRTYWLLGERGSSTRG

T2: natriuretic peptide receptor -B (human)
T2 chain: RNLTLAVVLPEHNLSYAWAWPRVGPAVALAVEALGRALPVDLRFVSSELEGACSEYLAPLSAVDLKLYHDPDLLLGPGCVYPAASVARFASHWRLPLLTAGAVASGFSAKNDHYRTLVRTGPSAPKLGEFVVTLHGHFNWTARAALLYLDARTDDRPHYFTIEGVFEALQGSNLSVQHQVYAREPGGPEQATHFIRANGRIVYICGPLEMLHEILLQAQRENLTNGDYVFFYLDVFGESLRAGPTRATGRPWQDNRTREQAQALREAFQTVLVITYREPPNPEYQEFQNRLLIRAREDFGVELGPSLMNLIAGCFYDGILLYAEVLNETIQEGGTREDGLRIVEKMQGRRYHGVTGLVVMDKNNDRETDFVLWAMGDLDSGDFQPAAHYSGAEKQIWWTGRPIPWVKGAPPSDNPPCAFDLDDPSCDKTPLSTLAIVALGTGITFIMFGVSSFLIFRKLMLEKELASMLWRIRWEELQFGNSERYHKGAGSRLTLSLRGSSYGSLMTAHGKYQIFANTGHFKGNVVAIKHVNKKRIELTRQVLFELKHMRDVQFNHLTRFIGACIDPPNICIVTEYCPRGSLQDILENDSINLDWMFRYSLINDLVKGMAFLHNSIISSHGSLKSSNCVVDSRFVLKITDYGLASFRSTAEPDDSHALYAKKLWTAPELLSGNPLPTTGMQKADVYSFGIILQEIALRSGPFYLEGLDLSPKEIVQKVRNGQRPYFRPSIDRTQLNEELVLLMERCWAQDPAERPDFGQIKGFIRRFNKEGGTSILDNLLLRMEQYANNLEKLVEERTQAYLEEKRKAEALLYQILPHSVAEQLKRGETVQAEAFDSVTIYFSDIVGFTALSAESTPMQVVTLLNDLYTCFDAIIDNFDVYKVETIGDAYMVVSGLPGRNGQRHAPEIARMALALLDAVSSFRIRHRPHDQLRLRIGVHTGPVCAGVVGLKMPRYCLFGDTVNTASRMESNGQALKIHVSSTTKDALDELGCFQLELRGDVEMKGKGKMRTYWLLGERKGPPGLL


What was measured:
[1] = biological target: T1, natriuretic peptide receptor -A; assay: cell-based or functional assay
[2] = biological target: T2, natriuretic peptide receptor -B; assay: cell-based or functional assay

Row | Binder | cyclic GMP production in NPR-A transfected 293-T cells, EC50 [1] [nM] | cyclic GMP production in GTM-3 cells, EC50 [2] [nM] | cyclic GMP production in GTM-3 cells, Emax (maximum activation) [2] [%]
1 | GLSKGCFGLKLDRIGSMSGLGC (ligand, disulfide 6-22) [C-type natriuretic peptide] | 1600 | 38.8 | 100
2 | MCHFGGRMDRISCYR [mini-ANP] | 1540 | > 45000 | 0
3 | SLRRSSCFGGRMDRIGAQSGLGCNSFRY (ligand, disulfide 7-23) [atrial natriuretic peptide] | – | 1630 | 15
